Data reported in the RNAGym collection of RNA variant scans (doi:10.1073/pnas.2313332121).

B1: TPR t1 (parent)
chain: GACCAAUCUGCCCUCAGAGCUCGAGAACAUCUUCGGAUGCAGAGGAGGCAGGCUUCGGUGGCGCGAUAGCGCCAACGUCCUCAACCUCCAAUGCAUCCCACCACAUGAUGAUGCCUGAAGAGCCUUGGUUUUUUG

Variants of: B1
Assay: polymerase ribozyme fitness, log enrichment relative to wild type (log ratio); higher = more active; in vitro selection for triplet polymerase activity
Procedure, shortened: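 Fitness compares each genotype's enrichment to that of the wild type on a logarithmic scale, averaging replicates with inverse-variance weights. The logarithm is base 2. Enrichment came from Illumina sequencing of input and output libraries after one triplicate round of in vitro selection, which included frozen incubation at −7 °C, of PCR-built, transcribed mutant libraries of each subunit of a heterodimeric triplet polymerase ribozyme. Only genotypes with ≥10 input reads and ≥1 read per output were kept.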
In the case of GACCAAUCUGCCCUCAGAGUUCGAGAACAUCUUCGGAUGCAGAGGAGGCAGGCUUCGGUGGCGCGAUAGCGGCAACGUCCUCAACCUCCAAUGCAUCCCACAACAUGAUGAUGCCUGAAGAGCCUUGGUUUUUUG [C20U C72G C102A], the “polymerase ribozyme fitness (log ratio)” value is reported as -3.19.
For GAUCAAUCUGACCUAAGAGCUCGAGAACAUCUUCGGAUGCAGAGGAGGCAGGCUUCGGUGGCGCGAUAGCGCCAACGUCCUCAACCUCCAAUGCAUCCCACCACAUGAUGAUGCCUGAAGUGCCUUGGUUUUUUG [C3U C11A C15A A121U], the “polymerase ribozyme fitness (log ratio)” value was 0.659.
For GACCAAUCUGCCCUCAGAGCUCGAGAACAUCUUCGGAUGCAGAGGGGGCAGGCUUCGGUGGCGCGAUAUCGCCAACGUCCUCAACCUCCAAUGCAUCCCACCACAUGAUGAUGCCUGAAGAGCCUUGGUUUUUUG [A46G G69U], the “polymerase ribozyme fitness (log ratio)” value was 0.473.
In the case of GACCAAUCUGCCUUCAGAGCUCGAGAACAUCUUCGGAUGCAGAGGAGGCAGGCUUCGGUGGCGCGAUAGCGCCAACGUCCUGAACCUCCAAUGCAUCCCACCACAUGAUGAUGCCUGAAGAGCCUUGGUUUUUUG [C13U C82G], the “polymerase ribozyme fitness (log ratio)” value is reported as 0.0764.
With GACCAAUCUGCCCUCAGAGCUCGAGAACAUCUUCGGAUGCAGAGGAGACAGGCUUUGGUGGCGCGAUAGAGCCAACGUCCUCAACCUCCAAUGCAUCCCACCACAUGAUGAUGCCUGAAGAGCCUUGGUUUUUUG [G48A C56U C70A] the “polymerase ribozyme fitness (log ratio)” value was -4.74.
In the case of GACCAAUCUGCCCUCAGAGCUCGAGAACAUCUUCGGAUGCAGAGGCGGUAGGCUUCGGUGGCGCGAUAGCGCCAACGUCCUCAACCUCCAAUGCAUCCCACCACAUGAUGAUGCCUGAAGUGCCUUGGUUUUUUG [A46C C49U A121U], the “polymerase ribozyme fitness (log ratio)” value is reported as 0.936.
For GACCAAUCUGCCCUCAGAGCUCGAGAACAUCUUCGCAUGCAGAGGAGGCAGGCUUCGGUGGCGCGAUAGCGGCAACGUCCUCAACCUCCAAUGCAUCCCACCACAUGAUGAUGCCUGAAGAGCCUUGGUUUUUUG [G36C C72G], the “polymerase ribozyme fitness (log ratio)” value was -2.37.
With GACCAAUUUGCCCUCAGAGCUUGAGAACAUCUUCGGAUUCAGAGGAGGCAGGCUUCGGUGGCGCGAUAGCGCCAACGUCCUCAACCUCCAAUGCAUCCCACCACAUGAUGAUACCUGAACAGACUUGGUUUUUUG [C8U C22U G39U G113A G120C C123A] the “polymerase ribozyme fitness (log ratio)” value was -5.45.
In the case of GACCAAUCUGCCCUCAGAGCUCGAGAACAUCUUCGGAUGCAGAGGAGGCAGGCUUCGGUGGCGCGAUAGCGCCAACGUCCUAAACCUCCAAUGCAUCCCACCACAUGAUGAUGCCUGAAGAGUCUUGGUUUUUUG [C82A C123U], the “polymerase ribozyme fitness (log ratio)” value is reported as 0.707.
For GACCAAGCUGCCCUCAGAGCUCGUGAACAUCUUCGGAUGCAGAGGAGGCAGGCUUCGGUGGCGCGAUAGCGCCAACGUCCUCAACCUCCAAUGCAUCCCACGACAUGAAGAUGCCUGAAGAGCCUUGGUUUUUUG [U7G A24U C102G U109A], the “polymerase ribozyme fitness (log ratio)” value was -4.85.
In the case of GACCAAUCUGCCCUCAGAGCUCGAGAACAUCUUCGGAUGCAGAGGAUGCAGGCUUCGGUGGCGCGAUAGCGUCAACGUCCUCAACCUCCAAUGAAUCCCACCACAUGAUGAUGCCUGAAGAGCCUUGGUUUUUUG [G47U C72U C94A], the “polymerase ribozyme fitness (log ratio)” value is reported as -2.85.
With GACCAGUCCGCCGUCAGAGCUCGAGAACAUCUUCGGAUGCAGAGGAGGCAGGCUUCGGUGCCGCGAUAGCGCCAACGUCCUCAACCUCUUAUGUAUCCCACCACUUGAUGAUGCCUGAAGGGCCUUGGUUUUUUG [A6G U9C C13G G61C C89U A90U C94U A105U A121G] the “polymerase ribozyme fitness (log ratio)” value was -5.89.
For GACCAAUCUGCCCUCAGAGGUCGAGAACAUCUGGGGAUGCAGAAGUGGCAGGCUUCGGUGGCGCGAUAGCGCCAACGUCCUCAACCUCCAAUGCAUCGCACCACAUGAUCAUCCCUGAAGAGCCUUGGUUUUUUG [C20G U33G C34G G44A A46U C98G G110C G113C], the “polymerase ribozyme fitness (log ratio)” value was -6.24.
In the case of GACCAAUCUGCUCUCAGAGCUCGAGAACAUCUUCGGAUGCAGAGGAGGCAGGCUUCGGUGGCGCGAUAGCGCCAACGUCCUCAACCCCCAAUGCAUCCCACCACAUGAUGAUGCCUGAAGAGCCUUGGUUUUUUG [C12U U87C], the “polymerase ribozyme fitness (log ratio)” value is reported as 1.04.
For GACCAAUCUGCCCUCAGAGCUCGAGAACAUCUUCGGAUGCAUAGGAGGCAGGUUUCGGUUGCGCGAUAGCGCCAACGUCCUCAACCUCCAAUGCAUCCCACCACAUGAUUAUGCCUGAAGAGCCUUGGUUUUUUG [G42U C53U G60U G110U], the “polymerase ribozyme fitness (log ratio)” value was -3.64.
In the case of GACCAAUCUUCCCUCAGAGCUCGAGAACAUCUUCGGAUGCAGAGGAGGCAGGCUUUGGUGGCGCGAUAGCGCCAACGUCCUCAACCUCCAAUGCAUCCCACCACAUGAUGAUGCCAGAAGAGCCUUGGUUUUUUG [G10U C56U U116A], the “polymerase ribozyme fitness (log ratio)” value is reported as -3.65.
In the case of GACCAAUCUGCCCUCAGAGCUCGAGAACAUCUUCGGAUGCAGAGGAGGCAGGCUUCGGUGGCGCGAUAGCUCCAACGUCCUCAACCUCAAAUGCAUCCCACCACAUGAUGAUGCCUGAAGAGCCUUGGUUUAUUG [G71U C89A U132A], the “polymerase ribozyme fitness (log ratio)” value is reported as -2.07.
For GACCAAUAUGCCCUCAGAGCUCGAGAACAUCUUCGGAUGCAAAGGAGGCAGGCUUCGGUGGAGCGAUAGCGCCAACGUCCUCAACCUCCAAUGCAUCCCACCACAUGAUGAUGUCUGAAGAGCCUUGGUUUUUUG [C8A G42A C62A C114U], the “polymerase ribozyme fitness (log ratio)” value was -2.59.
With GACCAAUCUGCCCUCAGAGCUCGAGAACAUCUUCGGAUGCAGAGGAAGCAGGCUUCGGUGGCGCGAUAGCGCCAACGUCCUCAACCUCCAAUGCAGCCCACCACAUGAUAAUGCCUGAAGAGCCUUGGUUUUUUG [G47A U96G G110A] the “polymerase ribozyme fitness (log ratio)” value was -3.19.
In the case of GACCAAUCUGCCCUCAGAGCUCGAGAUCAUCUUCGGAUGCAGAGGACACAGGCUUCGGUGGCGCGAUAGCGCCAACGCCCUCAACCUCCAAUGCGUCCCACCACAUGAUGAUGCCUGAAGAGCCUUGGUUUUUUG [A27U G47C G48A U78C A95G], the “polymerase ribozyme fitness (log ratio)” value is reported as -5.5.
With GACCAAUCUGCCCUCAGAGCUUGAGAACAUCUUCGGAUGCAGAGUAGGAAGGCUUCGGUGGCGCGAUAGCGCCAACGUCCUCAACCUCCAAUGCAUCCCACCACAAGAUGAUGCCUGAAGAGCCUUGGUUUUUUG [C22U G45U C49A U106A] the “polymerase ribozyme fitness (log ratio)” value was -5.79.
